Measurements as given in US20110165063A1 (published 2011).
Residue numbers refer to the chain shown, from its start.

T1: recombinant human IL-1α (human, UniProt P01583 113-271)
T1 sequence: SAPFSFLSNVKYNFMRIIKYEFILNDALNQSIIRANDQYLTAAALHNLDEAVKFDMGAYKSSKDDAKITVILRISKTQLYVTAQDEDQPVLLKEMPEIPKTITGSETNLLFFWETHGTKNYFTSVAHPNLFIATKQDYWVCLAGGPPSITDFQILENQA

T2: cynomolgus IL-1α (cynomolgus, UniProt P79340 113-271, limits assumed)
T2 sequence (looked up): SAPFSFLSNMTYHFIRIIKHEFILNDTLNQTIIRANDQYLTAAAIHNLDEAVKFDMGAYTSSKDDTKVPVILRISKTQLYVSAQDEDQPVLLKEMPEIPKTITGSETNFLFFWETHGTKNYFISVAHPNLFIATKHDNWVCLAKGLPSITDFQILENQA

B1: murine anti-human IL-1α monoclonal antibody 3D12 (antibody, V domains shown)
VH: QIQLVQSGPELKKPGETVKISCKASGYTFRNYGMNWVKQAPGKDLKRMAWINTYTGESTYADDFKGRFAFSLETSASTAYLQINNLKNEDTATYFCARGIYYYGSSYAMDYWGQGTSVTVSS
VL: IQMTQTTSSLSASLGDRVTISCRASQDISNCLNWYQQKPDGTVKLLIYYTSRLHSGVPSRFSGSGSGTDYSLTISNLEQEDIATYFCQQGKTLPYAFGGGTKLEINR
B2: h3D12.r16 (antibody, V domains shown)
VH: EVQLVQSGAEVKKPGASVKVSCKASGYTFKYYGMNWVRQAPGQGLERMGWINTYTGQSTYADDFKGRVTFTLDTSTSTAYMELSSLRSEDTAVYYCARDIYYYGSDFAMDYWGQGTTVTVSS
VL: DIQMTQSPSSLSASVGDRVTITCRASQDISNMLNWYQQKPGKAPKLLIYYTSRLKPGVPSRFSGSGSGTDYTFTISSLQPEDIATYFCQQGKTAPYTFGQGTKLEIK
B3: h3D12.8 (antibody, V domains shown)
VH: EIQLVQSGSELKKPGASVKVSCKASGYTFTNYGMNWVRQAPGQDLERMAWINTYTGESTYADDFKGRFVFSLDTSVSTAYLQISSLKAEDTAVYFCARGIYYYGSSYAMDYWGQGTTVTVSS
VL: B2 VL with M32C, A43T, K55H, P56S, A94L, T97A
notes: also called humanized 3D12 antibody h3D12.8; VH H3D12VH.1A / VL H3D12VK.1C
B4: h3D12-362-10/372-15 (antibody, V domains shown)
VH: EVQLVQSGAEVKKPGVSVKVSCKASGYTFTTYGMHWVRQAPGQGLEWMGWINTYTGESTYADDFQGRVTFTLDTSTSTAYMELSSLRSEDTAVYFCARGIYYYGSSYAMNYWGQGTTVTVSS
VL: B2 VL with A43T, K55Y, A94L, T97A
B5: h3D12.r10 (antibody, V domains shown)
VH: B2 VH with V2I, K30A, Y31H, R47W, V68F, D99G, Y103F, D106N, F107Y
VL: B2 VL with A43T, K55R, P56S, T93K, A94P
B6: h3D12.16 (antibody, V domains shown)
VH: B3 VH with S9A, L11V, V69T, S71T, V76T, L81M, Q82E, I83L, K87R, A88S
VL: B2 VL with M32C, A43T, K55H, P56S, A94L, T97A
notes: also called humanized 3D12 antibody h3D12.16; VH H3D12VH.2A / VL H3D12VK.1C
B7: h3D12.r37 (antibody, V domains shown)
VH: B2 VH with V2I, Q57E, T59R, Y103F, F107Y
VL: B2 VL with M32R, T51A, K92N, A94P

The binders below were run against T1, recombinant human IL-1α (assay: cell-based or functional assay).

IC50 for Antibody (PM), MRC-5 bioassay (IL-1α-stimulated production of IL-8) [pM]	Binder
1880	B1
0.6	B2
1950	B3
6	B4
0.6	B5
1360	B6
1.4	B7

The binders below were run against T2, cynomolgus IL-1α (assay: cell-based or functional assay).

IC50 for Antibody (PM), MRC-5 bioassay (IL-1α-stimulated production of IL-8) [pM]	Binder
72.3	B1
0.8	B2
12.6	B4
0.98	B5
0.6	B7

These binders were tested against T1, recombinant human IL-1α (assay: SPR (BIACORE), antibody captured, IL-1α in solution).

Kd [nM]	koff [s⁻¹]	kon [M⁻¹ s⁻¹]	Binder
0.0308	2.77e-05	900000	B2
1.35	0.00274	2.04e+06	B3
0.115	4.1e-05	355000	B4
0.0324	3.75e-05	1.16e+06	B5
2.09	0.00253	1.21e+06	B6
0.0281	2.54e-05	896000	B7

These binders were tested against T2, cynomolgus IL-1α in the same assay as above.

Kd [nM]	koff [s⁻¹]	kon [M⁻¹ s⁻¹]	Binder
0.0149	1.33e-05	901000	B2
0.0578	2.25e-05	389000	B4
0.00894	1.2e-05	1.37e+06	B5
0.0394	3.82e-05	970000	B7

The binders below were run against T1, recombinant human IL-1α (assay: ELISA, antibody captured by anti-human Fc, biotinylated human IL-1α titrated).
Protocol: To determine if anti-IL-1α antibodies bind to human IL-1α, ELISA plates (Nunc, MaxiSorp, Rochester, N.Y.) were incubated overnight at 4° C. with anti-human Fc antibody diluted in Pierce Coat buffer at 2 μg/ml (Jackson Immunoresearch, West Grove, Pa.). Plates were washed five times in washing buffer (PBS containing 0.05% Tween 20), and blocked for 1 hour at 25° C. with 200 μl per well superblock blocking buffer (Thermo scientific, #37515). Blocking buffer was removed by tapping plates, and […] of each antibody in PBS containing 10% superblock and 0.5% Tween-20 was added to the wells at 100 μl per well and incubated at 25° C. for 1 hour. The wells were washed five times in 1× PBST, and 1 mg/ml biotinylated antigen was titrated at 1:6 serial dilutions (for a range of mg to pg in PBS containing 10% superblock, 0.05% Tween 20). Each dilution of antigen was then added to the plates and incubated for 1 hour at 25° C. The wells were washed five times in 1× PBST and incubated for 1 hour at 25° C. with polyHRP streptavidin (KPL #474-3000, Gaithersburg, Md.). The wells were washed five times in 1× PBST, and 100 μl of ULTRA-TMB ELISA (Pierce, Rockford, Ill.) were added per well. Following color development, the reaction was stopped with 1N HCL and absorbance at 450 nm was measured. The half-maximal effective concentration (EC₅₀) values are shown in Table 9, and the numerical value indicates binding of anti-IL-1α antibodies to human IL-1α.

EC50 [nM]	Binder
0.072	B2
0.028	B3
0.007	B4
0.0692	B5
0.01	B6
0.114	B7
